# Laboratory results: patent US9073982B2, “Targets for regulation of angiogenesis” (The University of North Carolina at Chapel Hill, priority 2008, dated 2015)
# “Also recorded” adds a separate entry of the source.
# B1: SFRP2: mouse recombinant SFRP2 (US Biologicals), secreted frizzled-related protein 2 (protein)
# chain: LFLFGQPDFSYKRSNCKPIPANLQLCHGIEYQNMRLPNLLGHETMKEVLEQAGAWIPLVMKQCHPDTKKFLCSLFAPVCLDDLDETIQPCHSLCVQVKDRCAPVMSAFGFPWPDMLECDRFPQDNDLCIPLASSDHLLPATEEAPKVCEACKTKNEDDNDIMETLCKNDFALKIKVKEITYINRDTKIILETKSKTIYKLNGVSERDLKKSVLWLKDSLQCTCEEMNDINAPYLVMGQKQGGELVITSVKRWQKGQREFKRISRSIRKLQC
# What was measured:
# [1] = test system: mouse endothelial cells (MEC); experiment: Scratch wound assay on mouse endothelial cells; assay type: cell-based; conditions: SFRP2 0.7 pM-700 pM, 16 to 32 hours
# Description: The migration properties of SFRP2 on mouse endothelial cells (MEC) cells were evaluated using a scratch wound assay. Mouse endothelial cells were plated at 10,000 cells/well into a 96 well plate and allowed to become confluent in DMEM with 10% FBS. The cells were quiesced in DMEM without serum for 18 hours. The wound was formed using a 1 ml pipette tip and a 0.7 pM-700 pM dose curve of mouse recombinant SFRP2 (US Biologicals, Swampscott) was added to the cells. Each concentration was performed in triplicate and the experiment was repeated three times with similar results. Migration was measured from 16 to 32 hours. Migration distance was measured at each time point. Statistical differences between SFRP2 and control were evaluated with an unpaired two-tailed Student's t-test, with p<0.05 being significant.
# [2] = test system: mouse endothelial cells (MEC); experiment: Endothelial cell tube formation assay, MEC cells; assay type: cell-based; conditions: SFRP2 concentration range, 8 hours
# Description: The tube formation properties of SFRP2 on mouse endothelial cells (MEC) cells were evaluated using an endothelial cell tube formation assay. ECMATRIX (Chemicon) was thawed, diluted and solidified in a 96 well plate according to the manufacturer's instructions. 1×10^4 cells/well in 150 μl of DMEM (celigro) with 10% FBS (HyClone) and a concentration range (7-7000 pM) of SFRP2 (US Biologicals) were seeded onto the matrix and returned to 37° C., 5% CO2 for 8 hours. Images were acquired using the Nikon Eclipse TS100 microscope at 4× magnification with a Nikon CoolPix 995 digital camera. Results were quantified by counting the number of branch points.
# To evaluate whether tacrolimus inhibits SFRP2 induced tube formation, MEC cells were treated as above with SFRP2 7 nM with and without tacrolimus 100 uM for 8 hours and branch points were determined as described above. To evaluate whether tacrolimus reversed established tubes, cells were incubated with SFRP2 7 nM for 8 hours and then BSA or tacrolimus 100 μM was added to SFRP2 treated cells for an additional 4 hours, and then the number of branch points were counted. […] Tacrolimus was not cytotoxic to MEC cells, as only 5% of tacrolimus-treated cells took up trypan blue dye (data not shown).
# The tube formation properties of SFRP2 on MEC cells were evaluated using an endothelial cell tube formation assay. ECMATRIX (Chemicon) was thawed, diluted and solidified in a 96 well plate according to the manufactures instructions. 1×10^4 cells/well in 150 μl of DMEM (cellgro) with 10% FBS (HyClone) and a concentration range (3-3000 pM) of SFRP2 (US Biologicals) were seeded onto the matrix and returned to 37° C., 5% CO2 for 8 hours. Images were acquired using the Nikon Eclipse TS100 microscope at 4× magnification with a Nikon CoolPix 995 digital camera. Results were quantified by counting the number of branch point. To evaluate whether tacrolimus inhibits SFRP2 induced tube formation, MEC cells were treated as above with SFRP2 30 nM with and without tacrolimus (1 μM-100 uM) for 8 hours and branch points were determined as described above. To evaluate whether inhibitors of SFRP2-mediated angiogenesis would inhibit the growth of SVR tumor cells, SVR cells were treated with tacrolimus (1 μM-100 μM) or with a rabbit polyclonal antibody to SFRP-2 (H-140) (Santa Cruz Biotechnology, Santa Cruz, Calif., catalogue 4 sc-13940) in the tube formation assay.
# [3] = test system: chick chorioallantoic membrane; experiment: Chick chorioallantoic membrane (CAM) assay; assay type: in vivo, chicken; conditions: 100 ng per disk, evaluated day 3 after disk placement
# Description: On day 4, the eggs were cracked into sterile Petri dishes and incubated at 99° F. in 3% CO2, 65% humidity. For application of drug onto the CAM, Whatman grade 1 filter paper was cut into circles with a 6 mm diameter paper punch and autoclaved. To decrease inflammatory effects of the disk, the discs were soaked in 1 ml of 3.0 mg/ml cortisone acetate in absolute ETOH and air dried for 60 min in a laminar flow hood. On day 8, 5 disks per egg were placed on the outer third of the CAM, 2-3 mm from a vessel. Control PBS 7 μl was added to the discs for the control CAMs, and SFRP2 100 ng/7 μl PBS was added to the disks for the treated CAMs (n=5 control disks and 5 SFRP2-treated disks). The CAMs were evaluated under a stereomicroscope on day 3 after disk placement. Pictures were taken with a Wild M-4 70 Macrosystem, and angiogenesis was quantified using Metamorph Software with an angiogenesis module.
# Fertilized chickens eggs (NC State University Chicken Research Faint) were incubated at 100.4° F. in an egg turner (Model#1588 Genesis Hova-Bator, GQF Mfg. Co., Inc.) for 3 days. […] CAMs were evaluated under a stereomicroscope on day 3 after disk placement. Pictures were taken with a Wild M-4 70 Macrosystem and angiogenesis was quantified using Metamorph Software with an angiogenesis module.
# β-catenin = experiment: Western blot for nuclear and cytoplasmic β-catenin in endothelial cells; assay type: cell-based, mouse; conditions: SFRP2 700 pM
# Description: SFRP2 has been described as both a Wnt antagonist and agonist, but its effects on Wnt signaling in endothelial cells have not been elucidated. To determine if SFRP2 mediates canonical Wnt signaling in endothelial cells, cytoplasmic and nuclear β-catenin levels were measured in SFRP2-treated endothelial cells. Mouse endothelial cells were plated in 12-well plates and allowed to attach overnight. The next day, the media was changed and added to the wells with and without SFRP2 (700 pM). Cells were incubated for 16 hours, and the nuclear and cytoplasmic proteins were extracted by using NE-PER™ nuclear and cytoplasmic extraction reagent from PIERCE (Pierce Biotechnology) as described in the manufacturer's manual. Western blot analysis was performed using standard methods, with primary antibody to the dephosphorylated (active) β-catenin antibody (Santa Cruz, Clone BDI480, catalog # sc-59893).
# To evaluate the role of the non-canonical Wnt/Ca^++ pathway in SFRP2 induced angiogenesis, nuclear dephosphorylated NFATc3 protein levels were compared in control and SFRP2-treated endothelial cells. MEC cells were plated in 12-well plates and allowed to attach overnight. The next day, the media was changed and added to the wells with and without SFRP2 (700 pM). […]
molecule,measurement,setting,value
B1,endothelial cell migration,[1],increases endothelial cell migration
same,endothelial tube formation (branch points),[2],induced by SFRP2 in a concentration-dependent manner; also recorded: induces endothelial tube formation at 8 hours in a concentration-dependent manner
same,"angiogenesis on the CAM (branch points, segments, tube area, tube length)",[3],induced angiogenesis on the CAM; also recorded: induces angiogenesis on the chorioallantoic membrane
same,nuclear (and cytoplasmic) β-catenin level,β-catenin,no change in nuclear β-catenin; also recorded: no change in cytoplasmic or nuclear β-catenin levels
